# Substitutions are numbered along the chain they refer to.
# T1: MAGE-A1 peptide on HLA-A*02:01 (human)
# T1 peptide: KVLEYVIKV
# B1: A1A2-M01-621 (TCR, V domains shown)
# Valpha: GEDVEQSLFLSVREGDSSVINCTYTDSEFTYLYWYKQEPGAGLQLLTYIFAFESMKQDQRLTVLLNKKDKHLSLRIADTQTGDSAIYFCAGSGGGTDKLIFGTGTRLQVFP
# Vbeta: GAVVSQHPSWVICKSGTSVKIECRSLDFEATTMFWYRQFPKQSLMLMATTDYGSKATYEQGVEKDKFLINHASLTLSTLTVTSAHPEDSSFYICSAREPGQGPWEQYFGPGTRLTVT
# B2: A1A2-M01-624 (TCR, V domains shown)
# Valpha: B1 Valpha with T25Q, D26Y, S27G, E28M, F29S, A51S, E53M, S54D
# Vbeta: B1 Vbeta
# B3: A1A2-M01-622 (TCR, V domains shown)
# Valpha: B1 Valpha with E28S, F29S
# Vbeta: B1 Vbeta
# B4: A1A2-M01-625 (TCR, V domains shown)
# Valpha: B1 Valpha with E28S, F29M
# Vbeta: B1 Vbeta
# B5: A1A2-M01-623 (TCR, V domains shown)
# Valpha: B1 Valpha with E28S, F29Q, A51I, E53Q, S54A
# Vbeta: B1 Vbeta
# B6: ht27WT (TCR, V domains shown)
# V domain 1: RGEDVEQSLFLSVREGDSSVINCTYTDSSSTYLYWYKQEPGAGLQLLTYIFSNMDMKQDQRLTVLLNKKDKHLSLRIADTQTGDSAIYFCAGSGGGTDKLIFGTGTRLQVFP
# V domain 2: GAVVSQHPSWVICKSGTSVKIECRSLDFQATTMFWYRQFPKQSLMLMATSNEGSKATYEQGVEKDKFLINHASLTLSTLTVTSAHPEDSSFYICSAREPGQGPYEQYFGPGTRLTVTE
# Target: MAGE-A1 target antigen peptide … presented by HLA-A*02:01 on cells (human)
# Assay: cell-based or functional assay
row,"EC50 Value (M), JKR9 reporter activation by peptide-loaded T2 cells [M]",Binder
1,3.57e-08,B1
2,2.59e-08,B2
3,1.76e-08,B3
4,3.52e-08,B4
5,3.06e-08,B5

# Target: T2, MAGE-A1 target antigen peptide … presented by HLA-A*02:01 on cells (human)
# Assay: cell-based or functional assay
row,"EC50 Value (M), JKR9 reporter activation by peptide-loaded T2 cells [M]",Binder
1,1.67e-05,B6

# Target: T2, MAGE-A1 target antigen peptide … …
# Assay: cell-based or functional assay
# Remark: another data set of the same source
row,"EC50 Value (M), JKR9 reporter activation by peptide-loaded T2 cells [M]",Binder
1,2.31e-06,B6

# Target: T1, MAGE-A1 peptide on HLA-A*02:01
# Assay: JKR9 reporter + peptide-loaded T2, 16 h; full-length, on cells
row,EC50 of peptide [nM],Binder
1,35.7,B1
2,25.9,B2
3,17.6,B3
4,35.1,B4
5,30.6,B5

# Target: MAGE-A1 Dextramer (human)
# Assay: MAGE-A1 Dextramer gradient staining (MFI) of cells expressing the TCR, flow cytometry
row,EC50 [nM],Binder
1,0.121,B1
2,0.116,B2
3,0.0911,B3
4,0.0852,B4
5,0.187,B5

# Target: MAGE-A1 Dextramer (human)
# Assay: KD-SPR estimated from Dextramer staining MFI by the linear formula of Figure 6; not measured by SPR
row,Kd [nM],Binder
1,0.0747,B1
2,0.0651,B2
3,0.028,B3
4,0.0222,B4
5,0.337,B5

# Target: T1, MAGE-A1 peptide on HLA-A*02:01
# Assay: MAGE-A1 Dextramer gradient on transduced JKR9; unit inferred; full-length, on cells
row,EC50 of Dextramer staining [nM],Binder
1,0.121,B1
2,0.116,B2
3,0.0911,B3
4,0.0852,B4
5,0.187,B5

# Target: T1, MAGE-A1 peptide on HLA-A*02:01
# Assay: KD-SPR estimated from Dextramer MFI by the formula calibrated on gp100 TCRs, not measured; unit inferred; full-length, on cells
row,Kd [nM],Binder
1,~0.0747,B1
2,~0.0651,B2
3,~0.028,B3
4,~0.0222,B4
5,~0.337,B5

# Reference: patent publication EP4534554A1 (Corregene Biotechnology Co., Ltd., dated 2025)
